Data published in US20200369781A1 (published 2020).
Numbering of substitutions follows the chain as printed.

Tests used:
soluble human IL-6R [1] = target: T1, soluble human IL-6R (human, UniProt P08887 20-357); assay: BLI (Octet), in the same way as in Example 3
T1 construct: 152, 4958-4968 (1994); also called hsIL-6R; recombinant human IL-6R
T1 sequence: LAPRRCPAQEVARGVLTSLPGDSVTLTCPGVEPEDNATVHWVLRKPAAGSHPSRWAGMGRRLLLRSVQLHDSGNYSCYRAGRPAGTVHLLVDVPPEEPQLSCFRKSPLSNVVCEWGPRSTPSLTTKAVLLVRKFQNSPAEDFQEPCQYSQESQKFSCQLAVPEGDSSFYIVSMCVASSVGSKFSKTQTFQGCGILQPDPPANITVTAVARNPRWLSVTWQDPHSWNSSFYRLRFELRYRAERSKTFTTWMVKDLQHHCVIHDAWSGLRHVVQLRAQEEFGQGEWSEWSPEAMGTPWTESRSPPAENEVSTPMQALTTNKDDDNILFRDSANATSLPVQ

soluble human IL-6R [2] = target: T1, soluble human IL-6R; assay: BLI (Octet), in the same way as in Example 3, 30 C or 25 C
soluble human IL-6R [3] = target: T1, soluble human IL-6R; assay: BLI (Octet HTX), molecule captured on Protein A biosensor, hsIL-6R as analyte, 30 C
Protocol: The hsIL-6R binding evaluation of each molecule was conducted using Octet HTX (Pall ForteBio Corp.). Specifically, each molecule was allowed to bind to Biosensor/Protein A (ProA) (Pall ForteBio Corp., 18-5013), and hsIL-6R was allowed to act thereon, followed by binding evaluation at 30° C.

B1: 20A11-G1m/VK2-28-k0MT (antibody, human IgG1, kappa, V domains shown)
VH: EVQLVESGGGLVQPGGSLRLSCAASGSVFKINVMAWYRQAPGKGRELVAGIISGGSTSYADSVKGRFTISRDNAKNTLYLQMNSLRPEDTAVYYCAFITTESDYDLGRRYWGQGTLVTVSS
VL: not shown
notes: IgG antibody-like molecule with VHH 20A11 in place of VH
B1: binds (soluble human IL-6R [1]).

B2: 20A11hu-G1m/VK2-28-k0MT (antibody, human IgG1, kappa, V domains shown)
VH: B1 VH with Y37V, R45L, L47W
VL: not shown
notes: IgG antibody-like molecule with VHH 20A11hu in place of VH
B2: no binding (soluble human IL-6R [2]).

B3: IL6R90-G1m/VK2-28-k0MT (antibody, human IgG1, kappa, V domains shown)
VH: EVQLVESGGGLVQPGGSLRLSCAASGFTFDDYGMSWVRQAPGKALEWVSAISWNGNNTYYTESMKGRFTISRDNAKNTLYLQMNSLRPEDTAVYYCVKGSTAIVGVPPTYPDEYDYWGQGTLVTVSS
VL: not shown
notes: IgG antibody-like molecule with VHH IL6R90 in place of VH
B3: no binding (soluble human IL-6R [3]).
